The DeepSol protein solubility set

Assay: soluble on expression in E. coli; label from the status in PepcDB or PDB records

Sequence | soluble on expression in E. coli
MAHHHHHHMPDDRRRASRTDDALVAHRPADSASPVERRTRVDPRTHTKSLYQRGRDGSEMYASYYNSNDDPAFQERFNRHSNGNAFVQSAQFTYVSHGGCGGRNHTVVKERQRPVVVEEPDDADRHEASTDSGNNANVHAKHKDKEKRRSSKQDPIVEEPDSEDDYNDADSRAYRRGGKKGEFGSHPDALEFWRDPWGMESIMAEMMQPPLGFGDAFPFTSRRAPAQRRLKSPSVSNESKWQLSPHTRGGVMSSPFTGDLFGTGGPESPFRMMEAMQYHMHQQRAAMFGGVDPFRHFM | not soluble
MGTGQRKDPSQQRSQETVARILSATGQVLRAKGYTGCSTNAIAEAAGISKGSVYQYFANKDEIIEVLIDKIMEETTATFGTQLEQAVAKGTFLKDAALQSQLLAVLDRYCDILGSLLNDAPHLALTAHRSVRIEERCRDLLRTYVTLNPSAIGPGVDLEALLLVLTVSYREVSLEYLRRDLRDRRNELATVLYDMTMGGLAGRVTRGV | not soluble
ISAVIVGTAEDIYSRVLALMCQRKGAVSICLQHGALMGDEAFIPVFTTYQAVFGAYEAEWFIRKGCKPEQILVTGHPRFDQIFNRTPMDMSIFYRKLAFQPTKKIVLIATQPFSEDFYSGVLQGLSDQKQLQIIIKPHPWEIGKNKLDLYHEAAKKHQACRVIKKELELYDLLPYVDAAVTQTSTVGLEAMLFQKPVLIGKSSGNRSYPYYESLGDFMFDQPDELAHTLVEVLRSP | not soluble
GMGGAALPDNGWPADRIDTESAHSARIYDYIIGGKDYYPADKEAGDAMSREWPALPVHMRANRDWMNRAVAHLAKEAGIRQFLDIGTGIPTSPNLHEIAQSVAPESRVVYVDNDPIVLTLSQGLLASTPEGRTAYVEADMLDPASILDAPELRDTLDLTRPVALTVIAIVHFVLDEDDAVGIVRRLLEPLPSGSYLAMSIGTAEFAPQEVGRVAREYAARNMPMRLRTHAEAEEFFEGLELVEPGIVQVHKWHPDAATADGIRDEDIAMYGAVARKP | soluble
SMEDPDQLYTTLKNLLAQIKSHPSAWPFMEPVKKSEAPDYYEVIRFPIDLKTMTERLRSRYYVTRKLFVADLQRVIANCREYNPPDSEYCRCASALEKFFYFKLKEGGLIDK | soluble
MGHHHHHHSHIKKNNHHEENISSKMKGLNGKVSDLEKAAAQRKAKLDENSAFLQFNWKADVVESWIGEKENSLKTDDYGRDLSSVQTLLTKQETFDAGLQAFQQEGIANITALKDQLLAAKHVQSKAIEARHASLMKRWSQLLANSAARKKKLLEAQSHFRKVEDLFLTFAKKASAFNSWFENAEEDLTDPVRCNSLEEIKALREAHDAFRSSLSSAQADFNQLAELDRQIKSFRVASNPYT | not soluble
MSLSELGLGDPERPLDAVLHGFSISQSETIGRRTEMEDVTMIIKDFASYRRGRSSYRGAKCHESGHKEILLGIFDGHGGTECSSMVGDLFPVAFADALNSVLYAAQLNHAYDLPDSVWEPLFVGVFLRLDDTLRLKNIQSGSTAAICFILDNLVVSANCGDSRTVLTRDEAMIKSFGCDSMLYKVEGPTRSSRINEISSGSLLQLEQSQTAQLSGHAIINSARYFMNPEETSEEALVSAKRRGKRVEGLSLRLSKDHKPDDPTETRRIEASGGYVHGGRVMGTLSVCRSFGDFVYKPSISVVPFVSVYHFRTYDAWIVIACDGCWDSISDIDAAMLLSTCLSSQAGALKLRDEAYRLNSQDNISVITVRLYLEEGHHHHHH | soluble
MAAARIPMSDNLPWKTWTPDDLAPPPAEFVPMAESEETIIEEVEPSLEQQLAQLQMQAHEQGYQAGIAEGRQQGHEQGYQEGLAQGLEQGLAEAKAQQAPIHARMQQLVSEFQTTLDALDSVIASRLMQMALEAARQVIGQTPTVDNSALIKQIQQLLQQEPLFSGKPQLRVHPDDLQRVDDMLGATLSLHGWRLRGDPTLHPGGCKVSADEGDLDASVATRWQELCRLAAPGVV | soluble
MGSDKIHHHHHHMKTLKNLITSKHQTKASRFLGYLMPFDDFEKTLLQLKKEHFKAAHFVTAFRYSLEGKITEGFSDDGEPKGSSGMPMLSVLRREDLINIGLVSVRYFGGTLLGVGGLMKAYAKSALLCVENAQKEDALKDFVELETLSAHYSYKELDALQREIKKFSLQLSKKNFSNQSVEVEISGTRENLQAFLQQNKIN | not soluble
MAHHHHHHMKINNNEKSYILYQCLKLLIRLHDAGLSHLDLTPENILISDNYEMRLCDLSKSTPIYTYNLRHIKDVNRLYLFESCEPTIAKGAYMPPECWKIYWKYDTMKIKNPLKDLKNITDQEKRKQFYFDVSSADKFMLGVFFFWIWTNGNLWKCSDPLQDEDFFYFVKCDMNFDKFELTRKWPTDLKNIIKVGGAEQRRSG | not soluble
MSLAKYKKLFEPYTLNNDVVLKNRLVVAPLTIYDSGPDGELTPAAHNFWRNRFRGFGTWIVPFTNVHPSGIGFESPNAFHEENLPTLKAYATISHEQGAKAIIQLAHAGIHADPAMTKGYDLMGPSNLPYMGVRAMTDSEVREMVNAFAYATELAISAGLDGVEIHGANGWLIQQFVSETYNQRTDHWGGSVEKRFNFPLAIIDAIEAVRHKYHRPDFIVGYRFSPEEPGEVGLTMTETLALVDRLLDKPLQYIHISLWNFYKKIRRGGDVKKTRMEAVHDRINGRLPFIGVGDLFAEEQGLKAFNTGWADLLAVGGSVELNPNLIELIKTGQEDQIQSEFDWNEMDSYRFTPAMLYGTLAGNAMFPKVKEGHHHHHH | soluble
MGTICDAASPTFMLQHWVRDRRRGSRISLEHAIKRQCHDTARLYGLDDRGVIAPGYLADINVIDFDRVRLLKPWLAFDLPAGGKRLLQKAEGYDYTIKGGKVTFRNGEWTGATPGNLIRGPQRADLMEAAELEHHHHHH | not soluble
MGSDKIHHHHHHMRDLLQRPDLFSINTATLGYKTPLPAIIDACAARGIGAIAPWRRELQGEDLQQITRQLAASNMSVSGLCRSTYYTAPTLAERKLAIDDNRRALDDAAVLNAACYMQVVGGLPTGTKDLYEAREQVKQGIRQLLPHSKDVGVPIALEPLHPMTAADRSCLCTLRQALDWCDELDPDGEFGLGVAVDVYHVWWDPDLASQILRAGKRILAFHVSDWLMPTTDLVNDRGMPGDGVINIPSIRRLVENAGFNGAIELEIFSPYWWQKDINSTGNDSNLLIVFYVQIMPDDLVMQLHRF | not soluble
SNAMSVQLVKGVNLHVIPTEKYKTVRLLVRFNTRLNHETITKRTLLSSLMETNSLNYPNQVKLSERLAELYGASFGIGVSKKGNQHWFNISMNIVNDHYLQDSQVLAEAVDFLKEIIFAPNIQAGQFEAETFQREKENLKAYLESIVEDKQTYASLALQSVYFNQSEDQKIPSFGTVAALAEETAASLAAYYQKMLAEDQVDIFVLGDVNEAELVPLFKQLPFTPREEGKAAIFYNQPIRNVIEERTEREVLAQSKLNLAYNTDIYYGDSYYFALQVFNGIFGGFPHSKLFMNVREKEHLAYYASSSIDTFRGFMTVQTGIDGKNRNQVLRLISTELENIRLGKIRELEIEQTKAMLKNQYILALDNAGAWLEKEYLNELMPQTMLTAEEWIARINAVTIPEIQEVAKRLELQAIFFLEGETEND | soluble
TLAVAAGTGAYLIDKRQKQKAKEPALPAKAEDGSEPISQRELSWDDVQPVDIIGLEVGYRLIPLVDRDQGGELLERVKGVRKKLSQDFGFLIPAVHIRDNLELTPNSYRITLMGVAVGEAEIRPDQELAINPGQVYGMIDGEPTMDPAFGLEAVWIREEQREHAQALGYTVVDSSTVLATHLSQLLTNNASQLIGHEEVQNLLEMLGRSAPKLVENFVPDQLQLGVVVKVLQNLLNEAIPIRDIRTIVQTLAEYSSKSQEPDILTAAVRISLKRLIVQEINGIEPELPVITLIPELEQILHQTMQASGGESAGIEPGLAERLQSSLSHATQEQELKGEPAVLLTSGVLRSTLAKFVKNTIPNLRVLSYQEIPDEKQIRIVQAVGN | not soluble
MTQCYAEITGWGKCLPPATLSNHDLSTFLDTSDEWIQSRTGIEQRRISHVNTSDLATVAAQHAIACAGVSVEEIDLIIVATCSPDSLIPNIASRVQQNLGIPSAAAFDLNAACTGFLYGLETATRLMQASHYRHALVIGAERLSFYLDWTKRDTAVLFGDGAGAVVLSKTEQKVGLQDAQIGCDAQGRDILAVPKFGTAMDRFDADNGYWAFDFVGKEIFKRAVRGMGAAAQQVLARSGLSTEEIDVVIPHQANIRIIQTLCDLAGIAQDKAFVNIHRYGNTSAATVPIALCEALEQGKIKPHDDLLVAAFGAGLTWGAGHIRWGERITPLGKSDAQLPSCDHTALDLLSKAIEHCKRHQSE | not soluble
MFLRYMRRRGSGEDHEEEPRGVTVIATKVAENSKNPRRYSLVHQASCETQHHKGIRRQNTIQHRKQLTDQMRCQKILQQLNDEGIEVIFTANDVTPIEFSIILTSTDPTLSNFVSDILQNMSSAKVQICHVETRGNEASHDVLLACKATKNQLIHSAELLTQNHVALTKFSIFAKKLSDEKNQSQIWFPRHISELDQCSKCITKYEPTTDPRHPGHGDVAYIARRKFLNDQALEFKFGDEIGYVDYTEEEHATWKAVYEKLGDLHLSHTCAVYRQNLKILQEEKVLTADRIPQIRDVNKFLQKKTGFELRPCSGLLSARDFLASLAFRVFQTTTYLRHHKSPHHSPEPDLIHELLGHVPMFSDPLLAQMSQDIGLMSLGASDEHIEKLSTVYWFIVEFGLCKEDGKLKAIGAGLLSAYGELMHACSDAPEHKDFDPAVTAVQKYEDDDYQPLYFVADSIHDALAKLRKYASSMDRPFSVVYDPFTKSIEAIESSADLEKAFSRLSNDLSAITHAADRMKISITM | not soluble
MGSDKIHHHHHHMKLSVKIAGVLTVAAAAMTAKMYATAKGNHLKTHTFPLSKMKGKPPLTIFFISDIHKRLIDQDLLEKARSHAPHLVIIGGDLAEGGVPSARIEENIKRLVHFGVPIVFVWGNNDYEVRQHKLYSIFKAHGVITLRNESVPFSYNGHTIAIAGVDDIRMEMDHYEEAIKELDESQLNILVCHNPEIHEQINEDDGIDVILSGHTHGGQIRFGKFGPYELGKTGIVKNAAYLISNGYGTTKVPLRLGAEPETHIVTLCGPE | not soluble
MGSDKIHHHHHHMLLREPDPMNVKEKQMQHTDDTRDIAGVQKPEAPSGRRALITGASSGLGIEFAELLAAQKMNLVLAARRKEPMEKLAEDLRRRHGVDILVEPIDLAAPGAAARLKDSLNERAIQIDILVNNAGYGLQGEFLKTPIERTTDMIQLNITALTELSYVFGRDMAARGSGEILLIASLLAFQPVPTYAAYAATKSYVLSFGEALHDELRTQGVVVTSLCPGHTETGFDAAAGAQVSPMLRLLTMKPRPVAEAGLEALAKGKASVIAGFMNKVVAFSTRLTPRSMQRASMRKVMVP | not soluble
